This is an account of results in IntAct's records for PubMed 23770091.

B1: Discoidin, CUB and LCCL domain-containing protein 2 (Homo sapiens), Q96PD2 (parent)
chain: MASRAVVRARRCPQCPQVRAAAAAPAWAALPLSRSLPPCSNSSSFSMPLFLLLLLVLLLLLEDAGAQQGDGCGHTVLGPESGTLTSINYPQTYPNSTVCEWEIRVKMGERVRIKFGDFDIEDSDSCHFNYLRIYNGIGVSRTEIGKYCGLGLQMNHSIESKGNEITLLFMSGIHVSGRGFLASYSVIDKQDLITCLDTASNFLEPEFSKYCPAGCLLPFAEISGTIPHGYRDSSPLCMAGVHAGVVSNTLGGQISVVISKGIPYYESSLANNVTSVVGHLSTSLFTFKTSGCYGTLGMESGVIADPQITASSVLEWTDHTGQENSWKPKKARLKKPGPPWAAFATDEYQWLQIDLNKEKKITGIITTGSTMVEHNYYVSAYRILYSDDGQKWTVYREPGVEQDKIFQGNKDYHQDVRNNFLPPIIARFIRVNPTQWQQKIAMKMELLGCQFIPKGRPPKLTQPPPPRNSNDLKNTTAPPKIAKGRAPKFTQPLQPRSSNEFPAQTEQTTASPDIRNTTVTPNVTKDVALAAVLVPVLVMVLTTLILILVCAWHWRNRKKKTEGTYDLPYWDRAGWWKGMKQFLPAKAVDHEETPVRYSSSEVNHLSPREVTTVLQADSAEYAQPLVGGIVGTLHQRSTFKPEEGKEAGYADLDPYNSPGQEVYHAYAEPLPITGPEYATPIIMDMSGHPTTSVGQPSTSTFKATGNQPPPLVGTYNTLLSRTDSCSSAQAQYDTPKAGKPGLPAPDELVYQVPQSTQEVSGAGRDGECDVFKEIL

Variants of B1 are the subject of the assay “crkl_human CRKL, P46109”. To be noted: with crkl_human CRKL.
In the assay “fyn_human FYN, P06241” the parent is B1. To be noted: with fyn_human FYN.

Chain of fyn_human FYN, P06241 (P06241 whole entry, looked up): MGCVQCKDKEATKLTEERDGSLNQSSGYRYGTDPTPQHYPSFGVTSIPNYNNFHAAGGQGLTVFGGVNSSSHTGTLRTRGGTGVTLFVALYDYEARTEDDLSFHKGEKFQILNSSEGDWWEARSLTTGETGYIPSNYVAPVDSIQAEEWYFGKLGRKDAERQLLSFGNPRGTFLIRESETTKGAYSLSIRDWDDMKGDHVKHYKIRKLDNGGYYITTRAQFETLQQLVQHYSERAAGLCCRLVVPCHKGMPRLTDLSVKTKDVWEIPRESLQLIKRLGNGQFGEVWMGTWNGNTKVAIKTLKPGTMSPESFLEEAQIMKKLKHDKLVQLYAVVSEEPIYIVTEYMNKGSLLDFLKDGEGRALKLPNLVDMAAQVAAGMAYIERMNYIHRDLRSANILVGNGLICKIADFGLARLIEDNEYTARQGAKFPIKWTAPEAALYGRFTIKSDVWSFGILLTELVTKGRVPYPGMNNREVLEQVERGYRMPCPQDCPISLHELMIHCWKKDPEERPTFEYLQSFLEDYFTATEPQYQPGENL
Chain of crkl_human CRKL, P46109 (P46109 whole entry): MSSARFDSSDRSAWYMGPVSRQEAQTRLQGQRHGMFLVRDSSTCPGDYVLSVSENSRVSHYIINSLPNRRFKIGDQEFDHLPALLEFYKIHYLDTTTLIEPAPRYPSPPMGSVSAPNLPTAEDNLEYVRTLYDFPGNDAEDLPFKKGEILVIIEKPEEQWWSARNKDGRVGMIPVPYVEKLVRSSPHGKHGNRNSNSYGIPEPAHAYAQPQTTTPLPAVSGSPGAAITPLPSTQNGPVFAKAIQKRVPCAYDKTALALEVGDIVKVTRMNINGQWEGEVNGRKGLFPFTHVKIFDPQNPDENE

Take Y565F: the “effect of a mutation on the interaction” value in the assay with crkl_human CRKL, P46109 is “disrupting interaction”; with fyn_human FYN, P06241 it was “disrupting interaction”.

For Y621F, the “effect of a mutation on the interaction” value is listed as “disrupting interaction” with crkl_human CRKL, P46109 and “disrupting interaction” with fyn_human FYN, P06241.

On to Y732F, for which the “effect of a mutation on the interaction” value in the assay with crkl_human CRKL, P46109 is reported as “disrupting interaction”; with fyn_human FYN, P06241, “disrupting interaction”.

As to Y655F, the “effect of a mutation on the interaction” value in the assay with crkl_human CRKL, P46109 is “disrupting interaction”; with fyn_human FYN, P06241, “disrupting interaction”.

Consider Y750F, for which the “effect of a mutation on the interaction” value is “disrupting interaction” in the assay with crkl_human CRKL, P46109 and “disrupting interaction” with fyn_human FYN, P06241.

As for Y666F, the “effect of a mutation on the interaction” value in the assay with crkl_human CRKL, P46109 is on record as “disrupting interaction”; in the assay with fyn_human FYN, P06241, “disrupting interaction”.

Regarding Y677F, the “effect of a mutation on the interaction” value is given as “disrupting interaction” in the assay with crkl_human CRKL, P46109 and “disrupting interaction” with fyn_human FYN, P06241.
